Experimental data reported in patent US11786477B2, “Fibrin particles and methods of making the same” (NORTH CAROLINA STATE UNIVERSITY, priority 2017, dated 2023).

Legend:
[1] = tested on: Human dermal fibroblasts; assay: In vitro 3D collagen gel wound model, cell migration into biopsied wound; type: cell-based; conditions: 3D collagen gels, 20 μl sample into biopsied region, compared with saline and free KGF controls
Procedure: Human dermal fibroblasts (500,000 cells/ml) were embedded in 3D collagen gels (3 mg/ml) in serum-free culture media. Using biopsy punches, “wounds” 2 mm in diameter were created with approximately 0.5-1 mm depth. The biopsied 3D wounds were filled with fibrin nanoparticles (FBN), FBN with attached Keratinocyte Growth Factor (FBN-KGF) or saline (controls). The number of cells migrating into the hole from the surrounding 3D collagen gel was counted every 18-24 hours. Data from each sample was normalized to its biopsy area (in mm^2). The cell migration rate was measured by counting cell numbers within the normalized biopsy area (# cells/unit area) on each day. Each treatment was compared with saline and KGF only controls. […] Bulk fibrin sealants require high concentrations of fibrinogen and thrombin in order to induce fast polymerization at the surgical/wound site; by delivering prepolymerized FBNs we are able to circumvent this issue and without inhibiting migration.

[2] = tested on: epithelial dorsal dermal wounds; assay: In vivo dermal wound healing in mice; conditions: C57BF/6 mice; for 3-day average dermal area closure: 4 mm biopsy punch wounds, first 3 days; for slope of linear fit of average % normalized wound area: assuming linear healing rate of the first 3 days
Procedure: In vivo validation that fibrin nanoparticles can assist wound healing was performed in mice. Dermal wounds were created and the rate of healing measured over several days. Two epithelial dorsal dermal wounds were created in10-week-old healthy male […]/6 mice (Charles River Faboratories Wilmington, Mass.) using a 4 mm diameter biopsy punch. The skin was excised and the inner […] was removed using surgical tools. Wound healing due to skin refolding was prevented by stitching the surrounding skin to a sterilized silicone ring. The annular silicone ring was laser cut from a silicone sheet acquired from Grace Bio-Fabs, Bend, Oreg., to a required inner diameter of 4.9 mm. The silicone ring was held in position with stationary glue and stitches. […] Each wound was immediately imaged using a handheld Nikon camera and separately treated with control 0.9% saline, bulk fibrin gel (400 (μg), FBN (20 (μg), or FBN-KGF (20 μg at the highest concentration). After treatment, the wound was covered with translucent moisture responsive catheter dressing (IV3000, Smith & Nephew, Andover, Mass.) attached over the silicone ring. The porous sheet was also laser cut to the required dimensions to aid the surgeon and to match the wound area. The wound area was imaged using a handheld Nikon camera every 24 hours after removing the translucent dressing. Image analysis of the wound was performed in ImageJ and the scale was measured using the known inner diameter of the silicone ring. The % change in wound area on each day was compared its wound area in day 0 (day of biopsy). The rate of wound healing was quantified by plotting averaged % normalized wound area for each wound treatment. The slope of a linear fit of the average % normalized wound area for the first 3 days post biopsy was calculated in Prism and 2-way Anova statistics were performed to compare the slopes of each treatment (FIG. 9).

B1: FBN-KGF: Keratinocyte growth factor covalently coupled to FBN using carbodiimide and N-hydroxysulfosuccinimide (conjugate, UniProt P21781 32-194, looked up)
Fibroblast growth factor 7: CNDMTPEQMATNVNCSSPERHTRSYDYMEGGDIRVRRLFCRTQWYLRIDKRGKVKGTQEMKNNYNIMEIRTVAVGIVAIKGVESEFYLAMNKEGKLYAKKECNEDCNFKELILENHYNTYASAKWTHNGGEMFVALNQKGIPVRGKKTKKEQKTAHFLPMAIT
modifications: coupled to FBN nanoparticles
notes: Keratinocyte growth factor covalently coupled to FBN using carbodiimide and N-hydroxysulfosuccinimide
- cell recruitment / cell migration into 3D wound [1]: significantly enhanced cell recruitment and or cell proliferation
- 3-day average dermal area closure [2]: 48±9%
- slope of linear fit of average % normalized wound area [2]: −16±3

B2: free KGF: Keratinocyte growth factor (CYT-219, Prospec Protein Specialist) (protein, UniProt P21781 32-194, looked up)
Fibroblast growth factor 7: B1 Fibroblast growth factor 7
- 3-day average dermal area closure [2]: 42±12%
- slope of linear fit of average % normalized wound area [2]: −14±2
